Where two headings read alike, the source gives them in different places. Values belong to the binder of their own block, whether it stands above or below them.
Experiments:
mouse TIGIT-His = molecular target: T1, mouse TIGIT-His (mouse, UniProt P86176 29-148, limits assumed); test: Block ELISA Mouse PVR-Fc:TIGIT-His (blocked ligand mouse PVR-Fc)
T1 sequence (looked up): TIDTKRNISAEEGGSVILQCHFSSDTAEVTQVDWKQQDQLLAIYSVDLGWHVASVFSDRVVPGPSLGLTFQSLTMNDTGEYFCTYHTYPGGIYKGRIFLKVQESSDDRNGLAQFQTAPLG
Description: (§1) To test for the ability of the clones to block the TIGIT-PVR interaction, a blocking ELISA assay was used. Briefly, recombinant human PVR-Fc fusion protein, cynomolgus monkey PVR-Fc fusion protein, or mouse PVR-Fc fusion protein was coated at 4 μg/ml at 25 μl/well in phosphate-buffered saline (PBS, pH 7.0) onto 384-well Maxisorp microtiter plates (NUNC, Denmark) and incubated overnight at 4° C. The coating solution was then discarded and the plate was blocked using 0.5% bovine serum albumin (BSA) in PBS at 80 μl/well and incubated with gentle agitation for 1 hour. Titration curves of anti-TIGIT and Fab isotype control antibodies were diluted in assay buffer (PBS, 0.5% BSA, 0.05% Tween 20) using 12 serial 2.5-fold dilutions (40000-1.7 ng/mL). […] The plate was then washed 6× with wash buffer and bound human TIGIT-AviFlag-biotin, cyno TIGIT-AviFlag-biotin, or mouse TIGIT-His was detected by adding 25 μl/well of horseradish peroxidase-conjugated streptavidin (1:10000, Amersham, UK) or horseradish peroxidase-conjugated mouse anti-His (1:2500, Qiagen, Germany) diluted in assay buffer. […] Absorbance was read at 450 nm on a […] ASCENT® microtiter plate reader (Thermo Labsystems, Helsinki, Finland). Fit curves were plotted from the resulting optical density values from the ELISA plates and IC50s were calculated using Genedata Screener software (Genedata, Switzerland).

[1] = molecular target: T2, cynomolgus TIGIT-AviFlag-biotin (cynomolgus monkey, UniProt A0A7N9I9V4 89-209, biotin); test: Block ELISA Cyno PVR-Fc:Bio-TIGIT-AviFlag (blocked ligand cyno PVR-Fc)
T2 construct: also called cyno TIGIT-AviFlag-biotin
Description: as §1

[2] = molecular target: T3, human TIGIT-AviFlag-biotin (human, UniProt Q495A1 22-141, biotin); test: Block ELISA Human PVR-Fc:Bio-TIGIT-AviFlag (blocked ligand human PVR-Fc)
T3 sequence: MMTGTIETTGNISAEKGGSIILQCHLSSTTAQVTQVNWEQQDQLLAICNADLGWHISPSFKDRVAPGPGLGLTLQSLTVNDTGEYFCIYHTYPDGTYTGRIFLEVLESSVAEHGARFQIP
Description: as §1

human TIGIT protein [3] = molecular target: T4, human TIGIT protein (human, UniProt Q495A1 22-141, limits assumed); test: SPR, captured mAb
T4 construct: Recombinant protein (Genentech) used in ELISA screening and as SPR analyte; also called TIGIT antigen
T4 sequence: T3 sequence

[4] = molecular target: T5, cynomolgus monkey (cyno) TIGIT protein (cynomolgus monkey, UniProt A0A7N9I9V4 89-209); test: SPR, captured mAb
human TIGIT protein [5] = molecular target: T4, human TIGIT protein; test: SPR, bivalent affinity
[6] = molecular target: T5, cynomolgus monkey (cyno) TIGIT protein; test: SPR, bivalent affinity
human TIGIT protein [7] = molecular target: T4, human TIGIT protein; test: SPR, monovalent affinity
[8] = molecular target: T5, cynomolgus monkey (cyno) TIGIT protein; test: SPR, monovalent affinity
[9] = molecular target: T6, cynomolgus TIGIT on CHO cells (cynomolgus monkey, UniProt A0A7N9I9V4 89-312); test: FACS on CHO cells expressing cyno TIGIT, FITC anti-hIgG detection
T6 construct: whole, on cells; also called CHO-cyTIGIT; cyTIGIT
Description: (§2) Additional in vitro binding studies of the OMT- and SD-derived anti-TIGIT antibody clones were conducted. The OMT- and SD-derived anti-TIGIT clones were tested for binding to human and cyno TIGIT expressed on the surface of CHO cells by FACS analysis. CHO cells were transfected with full-length human TIGIT (CHO-hTIGIT) or cynomologous TIGIT (CHO-cyTIGIT). The TIGIT-expressing CHO cells were incubated with each anti-TIGIT antibody at the indicated concentrations and then detected via a FITC-labeled anti-hIgG antibody (see FIG. 1A) using standard methods. The results, shown in Table 6 and FIGS. 1B-1E, corroborate the results from the BIACORE™ analysis, described above.

[10] = molecular target: T7, full-length human TIGIT on CHO cells (human, UniProt Q495A1 22-244); test: FACS on CHO cells expressing human TIGIT, FITC anti-hIgG detection
T7 construct: also called CHO-hTIGIT; hu TIGIT
T7 sequence: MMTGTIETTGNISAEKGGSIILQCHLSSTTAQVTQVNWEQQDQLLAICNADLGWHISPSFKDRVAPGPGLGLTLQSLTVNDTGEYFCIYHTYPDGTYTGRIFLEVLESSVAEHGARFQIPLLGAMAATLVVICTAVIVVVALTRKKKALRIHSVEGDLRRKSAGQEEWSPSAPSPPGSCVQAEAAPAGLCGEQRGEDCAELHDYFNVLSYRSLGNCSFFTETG
Description: as §2

[11] = molecular target: T8, human TIGIT on activated human primary T cells (human, UniProt Q495A1 22-244); test: FACS on activated human PBMC, CD4 T cells, FITC anti-hIgG detection
T8 construct: also called Human T cell
T8 sequence: T7 sequence
Description: The OMT- and SD-derived anti-TIGIT clones were also tested for binding to human primary T cells by FACS analysis. Human PBMC were activated for with plate-bound anti-CD3 (5 μg/ml) and soluble anti-CD28 (2 μg/ml) for 2 days as described in Yu et al. Nature Immunology. 10: 48-57, 2009, which is incorporated herein by reference in its entirety. Cells were then washed and incubated with incubated with each anti-TIGIT antibody at the indicated concentrations and then detected via a FITC-labeled anti-hIgG antibody. Cells were also stained with anti-CD4, anti-CD8, and anti-CD25 (BD bioscience). Human CD4+(CD25+CD4+) and human CD8+(CD25+CD8+) T cells were assessed for binding by the anti-TIGIT clones by FACS. All samples were acquired on LSR-II or LSR-Fortessa instruments (BD Biosciences) and analyzed using FlowJo software (Treestar).

[12] = molecular target: T6, cynomolgus TIGIT on CHO cells; test: FACS blocking assay: labelled PVR-Fc (blocked ligand) on CHO cells expressing cyno TIGIT
Description: (§3) These studies were further validated in CHO-TIGIT PVR blocking experiments in which TIGIT-expressing CHO cells were incubated with labeled PVR-Fc fusion protein in the presence of anti-TIGIT antibody or an human IgG1 control (FIG. 4A).

[13] = molecular target: T7, full-length human TIGIT on CHO cells; test: FACS blocking assay: labelled PVR-Fc (blocked ligand) on CHO cells expressing human TIGIT
Description: as §3

human TIGIT protein [14] = molecular target: T4, human TIGIT protein; test: SPR, captured mAb; remark: listed apart in the source
Text: (§4) To prevent unwanted pyroglutamate formation for clones 4.1A4, 4.1 D3, and 7.4A3 (also referred to as 1A4, 1 D3, and 4A3, respectively) and to resolve the issue of unpaired cysteine residues for clones 4.1A4 and 7.4A3, the following optimized anti-TIGIT antibody variants were generated: 4.1A4.C96S.Q1E, 4.1A4.C96Y.Q1E, 4.1 D3.Q1E, 7.4A3.C96S.Q1E, and 7.4A3.C96Y.Q1E (also referred to as 1A4.C96S.Q1E, 1A4.C96Y.Q1E, 1 D3.Q1E, 4A3.C96S.Q1E, and 4A3.C96Y.Q1E, respectively). As described below in Table 2, the affinities of these five optimized variants for human and cynomolgus monkey (cyno) TIGIT were then determined by Surface Plasmon Resonance (SRP) (BIACORE™ analysis) and compared to that of their respective parental clones.
(§5) Briefly, a series S CM5 biosensor chip was activated with N-ethyl-N′-(3-dimethylaminopropyl)-carbodiimide hydrochloride (EDC) and N-hydroxysuccinimide (NHS) reagents according to the supplier's (GE Healthcare Biosciences, Piscataway, N.J.) instructions, and a human antibody capture kit was applied to couple goat anti-human Fc IgGs in order to achieve approximately 10,000 response units (RU) on each flow cell, followed by blocking un-reacted groups with 1M ethanolamine.
(§6) (flow rate: 30 μl/min) with no regeneration between injections. The sensorgrams were recorded and evaluated by BIAcore™ T200 Evaluation Software (version 2.0) after subtraction of reference cell signal. Association rates (kₒₙ) and dissociation rates (koff) were calculated using a simple one-to-one Langmuir binding model. The equilibrium dissociation constant (KD) was calculated as the ratio koff/kₒₙ.

[15] = molecular target: T5, cynomolgus monkey (cyno) TIGIT protein; test: SPR, captured mAb; remark: listed apart in the source
Text: as §4, §5, §6

T5 sequence (A0A7N9I9V4 entry or part of it): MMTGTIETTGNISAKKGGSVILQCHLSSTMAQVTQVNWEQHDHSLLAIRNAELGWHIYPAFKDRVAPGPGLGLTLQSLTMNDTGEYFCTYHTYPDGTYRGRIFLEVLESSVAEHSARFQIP
T6 sequence (A0A7N9I9V4 entry or part of it): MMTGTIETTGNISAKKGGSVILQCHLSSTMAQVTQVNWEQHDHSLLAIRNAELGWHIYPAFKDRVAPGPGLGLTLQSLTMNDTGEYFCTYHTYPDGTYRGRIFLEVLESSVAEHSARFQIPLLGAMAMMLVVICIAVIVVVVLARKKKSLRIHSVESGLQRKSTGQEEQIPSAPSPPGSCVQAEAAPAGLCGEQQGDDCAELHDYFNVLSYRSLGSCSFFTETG

Kd (human TIGIT protein [3]): 0.09 nM
koff (human TIGIT protein [3]): 8.4e-05 s⁻¹
kon (human TIGIT protein [3]): 905000 M⁻¹ s⁻¹
Kd [4]: 0.41 nM
koff [4]: 0.000281 s⁻¹
kon [4]: 678000 M⁻¹ s⁻¹
Kd (human TIGIT protein [5]): ≤ 0.003 nM
Kd [6]: 0.013 nM
Kd (human TIGIT protein [7]): 0.093 nM
Kd [8]: 0.41 nM
EC50 (read off the curve) [9]: ~0.2 nM
EC50 (read off the curve) [10]: ~0.2 nM
EC50 (read off the curve) [11]: ~0.09 nM
IC50 (read off the curve) [12]: ~0.09 nM
B2: rat10A5 (antibody, V domains shown)
VH: QVSLKESGPGILQPSHTLSLTCSFSGFSLTTYGMGVSWIRQPSEKGLEWLASIWWNGNTYYNPSLRSRLTVSKDTSNDQAFLNVTSVDTTDTATYYCAHTGGAVITWFAYWGQGTLVTVSS
VL: NIVMTQSPKSMSISIGDRVTMNCKASQSVGKNIAWYQQKTGQSPQLLIYYASNRYTGVPDRFTGGGSGTDFTLTINSVQAEDAAFFYCQHIYNSPYPFGTGTKLEIK
notes: SD rat-derived; rat V domains as FR/HVR pieces; also called 1.10A5; Chimeric 1.10A5

Kd (human TIGIT protein [3]): 0.03 nM
koff (human TIGIT protein [3]): 1.8e-05 s⁻¹
kon (human TIGIT protein [3]): 522000 M⁻¹ s⁻¹
Kd [4]: 0.25 nM
koff [4]: 9.6e-05 s⁻¹
kon [4]: 381000 M⁻¹ s⁻¹
Kd (human TIGIT protein [5]): ≤ 0.007 nM
Kd [6]: ≤ 0.013 nM
Kd (human TIGIT protein [7]): 0.034 nM
Kd [8]: 0.25 nM
EC50 (read off the curve) [9]: ~0.4 nM
EC50 (read off the curve) [10]: ~0.3 nM
IC50 (read off the curve) [12]: ~0.3 nM
IC50 (read off the curve) [13]: ~0.4 nM
B3: rat15C8 (antibody, V domains shown)
VH: EVQLQQSGPELQRPGASVKLSCKASGYTFTEHSIYWLKQRPKQSLEIIGRIDPKNGRTYFVDKFKNRATLTTNTSSNTAYMQLSSLTSEDTAIYFCARIDGFYFDFWGQGVMVTASS
VL: NIHLTQSPSLLSASVGDRVTLSCKGSQNVNKYLVWYQQKLGEAPKLLIYSTDNLQSGIPSRFSGSGSGTDYTLTISSLQPEDAATYFCYQYNNGFTFGSGTKLEIK
notes: SD rat-derived; rat V domains as FR/HVR pieces; also called 1.15C8; Chimeric 1.15C8

Continued, binder first:

B1: 4.1D3.Q1E Fab (Fab, V domains shown)
VH: EVQLQQSGPGLVKPSQTLSLTCAISGDSVSSNSAAWNWIRQSPSRGLEWLGKTYYRFKWYSDYAVSVKGRITINPDTSKNQFSLQLNSVTPEDTAVFYCTRESTTYDLLAGPFDYWGQGTLVTVSS
VL: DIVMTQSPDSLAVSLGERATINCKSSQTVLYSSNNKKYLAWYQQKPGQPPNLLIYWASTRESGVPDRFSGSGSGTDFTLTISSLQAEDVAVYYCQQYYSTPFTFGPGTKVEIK
notes: also called 4.1 D3.Q1E in Fab format
IC50 (mouse TIGIT-His): > 133 nM
IC50 [1]: 1.5 nM
IC50 [2]: 6.9 nM

B4: 4.1A4 (antibody, V domains shown)
VH: QVQLVQSGSELKKPGASVKVSCKASGYTLTNYPMNWVRQAPGRGLEWMGWINTNTGSPAYAQDFTERFVFSLDTSVTTAYLQISSLKAEDTAVYYCARTAITSVYHFDYWGQGTLVTVSS
VL: DIQLTQSPSFLSASVGDRVTITCRASQGISSYLAWYQQKPGKAPRVLIYGATTLQSGVPSRFSGSESGTEFTLTISSLQPEDLATYYCQKLNSHPCSFGQGTKVEIK
notes: OMT rat-derived human antibody; also called 4.1A4.Q1.C96
Kd (human TIGIT protein [14]): 3.57 nM
koff (human TIGIT protein [14]): 0.00122 s⁻¹
kon (human TIGIT protein [14]): 342000 M⁻¹ s⁻¹
Kd [15]: 2.42 nM
koff [15]: 0.000643 s⁻¹
kon [15]: 266000 M⁻¹ s⁻¹
Kd (human TIGIT protein [5]): 0.31 nM
Kd [6]: 0.035 nM
Kd (human TIGIT protein [7]): 4.9 nM
Kd [8]: 2.6 nM
EC50 (read off the curve) [9]: ~0.8 nM
EC50 (read off the curve) [10]: ~1 nM
EC50 (read off the curve) [11]: ~0.5 nM
IC50 (read off the curve) [13]: ~0.2 nM

— patent US20220064286A1 (Genentech, published 2022)
